Data published in the nanobody polyreactivity screen of Harvey et al. (2022).

Experiment: yeast display, Sf9 membrane polyspecificity reagent, FACS + sequencing; frameworks hold sequencing errors
In short: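 A nanobody's polyreactivity label depends on the gate it was sorted from. Yeast display cells were stained with 10% biotinylated, detergent-solubilized Sf9 membrane reagent for 1 hour at 4 °C, enriched on streptavidin microbeads and sorted by FACS. The low and high (top ~1%) gates were set on anti-HA fluorescence for expression and streptavidin fluorescence for reagent binding.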

Sequence | polyreactivity (PSR sort gate)
QVQLVESGGGLVQAGGSLRLSCAASGSIIHDNAMGWYRQAPGKERELVAAINRGGSTHYADSVKGRFTISRDNAKNTVYLQMNSLKPEDTAVYYCAADGIRPEVGYWGQGTQVTVSS | low polyreactivity
QVQLVESGGGLVQAGGSLRLSCAASGSIFDLNAMGWYRQAPGKERELVAAISSGGGTYYADSVKGRFTISRDNAKNTVYLQMNSLKPEDTAVYYCNRVTRWTYNYWGQGTQVTVSS | high polyreactivity
QVQLVESGVGLVQAGGSLRLSCAASGLTYYGYVMGWYRQAPGKERELVAAISQSGGTTYYADSVNGRFTISRDNAKNTFYLHMNSLTPEDTAVYYCAADHFYILIFLYGKLTLDYWGQGTQVTVSS | high polyreactivity
QVQLVESGGGLVQAGGSLRLSCAASGSIFDAYAMGWYRQAPGKERELVAAITTGGGSTYYADSVKGRFTISRDTAKNTVYLQMNSLKPEDTAVYYCARDYGKYKGYYWGQGTQVTVSS | low polyreactivity
QVQLVESGGRLVQAGGSLRLSCAASGSIIVYNTMGWYRQAPGKERELVAAITVRDDSTYYADSVKGRFTISRDNAKNTVYLQMNSLKPEDTAVYYCNARGNFLIGRDYWGQGTQVTVSS | low polyreactivity
QVQLVESGGGLVQAGGSLRLSCAASGYILPKNTMGWYRQAPGKERESVAVITYSGGSTYYADSVKGRFTISRDNAKNTVYLQMNSLKPEDTAVYYCAADKWYYVRYPTDAYSKFDYWGQGTQVTVSS | low polyreactivity
QVQLVESGGGLVQAGGSLRLSCAASGRIFRIYAMGWYRQAPGKERELVARITYSGGSTYYADSVKGRFTISRDNAKNTVYLQMNSLKPEDTAVYYCNAYFIYEGGWYYKAQYDYWGQGTQVTVSS | low polyreactivity
QVQLVESGGGLVQAGGSLRLSCAASGRIFSDNAMGWYRQAPGKERELVATINYSGGSTYYADSVKGRFTISRDNAKNTVYLQMNSLKPEDTAVYYCATRIPHRINYYDYDYWGQGTQVTVSS | low polyreactivity
QDQLVESGGGLVQAGGSLRLSCAASGSIFGAYARGWYRQAPGKERELVAAISGSGTSTYYADSVKGRFTISRDNAKNTVYLQMNSLKPEDTAVYYCAADGTYFYIYLGDRFDYWGQGTQVTVSS | low polyreactivity
QVQLVESGGGLVQAGGSLRFSCAASGSTFLSNAIGWYRLAPGKERELVAAISIGGGRTYYADSVKGRFTISRDNAKNTVYLQMNSLKPEYTAVYYCNAVGRHTDAYHYDYWGQGTQVTVSS | high polyreactivity
QVQLVESGGGLVQAGGSLRLSCAASGRIFPKNTMGWYRQAPGKERELVAAINWNGGRTYYADSVKGRFTISRDNAKNTVYLQMNSLKPEDTAVYYCAKDGYWDFDYWGQGTQVTVSS | low polyreactivity
QVQLVESGGGLVQAGGSLRLSCAASGSTFRYYAMGWYRQAPGKERELVAAITRSGGSTSYADSVKGRFTISRDNAKNTVYLQMNSLKPEDTAVYYCAARFYRPYYARQGYNYWGQGTQVTVSS | high polyreactivity
QVQLVESGGGLVQAGGSLRLICAASGSISTPYTMGWYRQAPGKERELVAAISWIGDTTSYADSVKGRFTISRDNAKNTVYLQMNSLKPEDTAVYYCNAEHRGYDYWGQGTQVTVSS | low polyreactivity
QVQLEESGGGLVQAGGSLRLSCAASGFTFNKYAMGWYRQAPGKERELVDAISSSGGSTRYADSVKGRFKISRDNAKNTVYLQMNSLKPEDSAVYYCAVYVTRDSGWWLYDYWGQGTQVTVAS | high polyreactivity
QVQLVESGGGLVQAGGSLRLSCAASGFIFKDNAMGWYRQAPGKERELVAVSSGTGVRTNYADSVKGRFTISRDNAKNTVYLQMNSLKPEDSAVYYCIADTYRRAQLRFNSWGQGTQVTVSS | low polyreactivity
QVQLVESGGGLVQAGCSLRLSCAASGYTSRRNVMGWYRQAPGNERELVAAINSAGSTTYADSVKGRFTISRVNAKNTVYLQMNSLKPEDTAVYYCAASVYTYNYDLHKSYYLGQGTQVTVSS | high polyreactivity
QVQLVESGGGLVQAGGSLRLSCAASGSTITSYAMRLYRQAPGKDRELVASISRSGGRTYYADSVKGRFTISRDNAKNTVYLQMNSLKPEDTAVYYCAADDYSATTRYYYWGQGTQVTVSS | high polyreactivity
QVQLVESGGGLVQAGGSLRLSCAASGSIFTVYAMGWYRPAPGKEREFVAAITGSGGRTYYADSVKGRFTISRDNAKNTVYLQMNSLKPEDTAVYYCAATTRPGYRYEGDYWGQGTQVTVSS | low polyreactivity
QVQLVESGGGLVQAGGSLRLSCAASGRIFSPSDMGWYRQAPGKERELVAAIRSDGGRTHYADSVKGRFTISRDNAKNTVYLQMNSLKPEDTAVYYCARDNGRTITTTDTYDYWGQGTQVTVSS | low polyreactivity
QVQLVESGGGLVQAGGSLRLSCAASGRTFKYYALGWYRQAPGKERELVAAISTRGGRTYADSVKGRFTISRDNAKNTVYLQMNSLKPEDTAVYYCARDSNVGHHGFDYWGQGTQVTVSS | low polyreactivity
QVQLVESGGGLVQAGGSLRLSCAASGRIFVRNAMGWYRQAPGKERELVAAISRSGGSTYYADSVKGRFTISRDNAKNTVYLQMNSLKPEDTAVYYCNKGFNYGGWFKKYGYWGQGTQVTVSS | high polyreactivity
QVQLVESAGGLVQEGGSLRLSCAASVIFWANVMGWYRQAPGKEWELVDAITSGGSTNYADSVKGRFTISRDNAKNTVYLQMNSLKPEDTAVYYCIKPWYSYRYGGVGYGYWGQGTQVTVSS | low polyreactivity

Sequence | polyreactivity (PSR sort gate)
QVQLVESGGGLVQAGGSLRLSSAASGRTFYANAMGWYRQAPRKERELVAAISSGGITNYADSVKGRFTISRDNAKNTVYLQMNSLKPEDTAVYYCPYDYWGQGTQVTVSS | low polyreactivity
QVQLVESGGGLVQEGGSLRLSCAASGSIFPYYAMGWYRQAPGKERELVAAISSAGSTNYADSVKGRFTISRDNAKNTVYLQMNSLKPEDTAVYYCAADLFYREFDYWGQGTQVTVSS | low polyreactivity
QVQLVESGGGLVQAGGSLRLSSAASGRIFPRYAMGWYSQAPGKERELVAAISGSGGGTYYADSVKGRFTISRDNAKNTVYLQMNSLKPEDTAVYYCAAVATQEKYDYWGQGTQVTVSS | low polyreactivity
QVQLVESGGGLVPAGGSLLLSCAASGRTIYSYGMGWYRQAPGKERELVASISSSTGSTYYADSVKGRFTISRDNAKNTVYLQMNSLKPEDTAVYYCAKRYSWTRRYDYWGQGTQVTVSS | high polyreactivity
QVQLVESGGGLVQAGGSLRLSCAASGRIFAEYAMGWYIQATGKERELVASISRRGGSTYYADSVKGRFTISRDNAKNTVYLQMNSLKPEDTAVYYCAAVWAYYHTRYSTWGYDYWGQGTQVTVSS | high polyreactivity
QVQRVESGGGLVQAGGSLPLSCAATGRTVRQNAMGWYGQAPGKVSELVAAISSSGTNTHYAVSVKGRFTISRDNANNTVYIVMNRLKPEDTAVYYCAADGWGARRKQYHDNGFWGTGTQVTVSS | high polyreactivity
QVQLVESGGGLVQAGGSLRLSCAASGIIFGGYDMGWYRQAPGKERELVAAISWSGGSTYYADSVKGRFTISRDNAKNTVYLQMNSLKPEDTAVYYCNAVGRRNVDSSLNDYWGQGTQVTVSS | low polyreactivity
QVQLVESGGGLVQAGGSLRLSCAASGIILSENAKGWYRQAPGKERELVAAITSSGSTNYADSVKGRLTISRDNAKNTVYLQMNSLKPVDTAVYYCATQNLYVSWYYAWYGYGYWGQGTQVNVSS | low polyreactivity
QVQLVESGGGLVQAGGSLRLSCAASGSIFYPNAMGWYRQAPGKERELVAAISSSGGTNYADSVKGRFTISRDNAKNTVYLQMNSLKPEDTAVYYCNARDKVRYRYSRMDYWGQGTQVTVSS | low polyreactivity
QVHLVESGGGLVQAGGSLRLSCAASGRTFRQYAMGWNIQAPGKERELVATISSGGSTYYADSVKGRFTISRDNAKNTVYLQMNSLKPEDTSVYYCAAASGTKRLYRGTRGDYWGQGTQVTVSS | low polyreactivity
QVQLGESGGGLVQAGGSLRLSCAASGNTFGTYAMGWYRHAPGKERELVAAITWRGGRTTYADSVKGRFTISRDNAKNTVYLQMIRLIPEDTAVYYCAAVIHWWYATYDYWGQGTQVTVSS | high polyreactivity
QVQIVESGGGLVQAGGSLRLSGAASGRTFRPYTMGWYRPAPGKERELVARITSGGSTNYADSVKWRFTISRDNAKITVYLQMNSLKPEDTAVYYCNKPGYRLRLDDDYWGQGTQVTVSS | low polyreactivity
QVQLEESGGGIVQAGGSLRLSCAASGRIFRIYAMGWYRKAPGKERELVARITYSGGSTYYADSVKGRFTISRDKAKNTVYLQMNSLKPEDTAVFYCAADWLFYQYGYWGQGTQVTVSS | low polyreactivity
QVQLVESGGGLVQAGGSLRLICAASGRTFATYAMGWYRQAPGKERELVAAISNSGGRTNYADSVKGRFTISRDNAKNTVYLLMNSLKPEDTAVFYCATKAYTSGRYYWGQGTQVTVSS | high polyreactivity
QVQLVESGGGLVQAGGSLRLSCAPSGRTFGYNGRGWSRQEPGKESELVAAINSGGNTNYADSVKGRFTISRDYAKNTVYLQMNSLKPEDTAVYYCAKYGTLFEPVPNEYDYWGQGTQVTVSS | low polyreactivity
QVQLVESGGGLVQAGGSLRLSCAASGITLYYYTMGWYRQAPGKERELVAAISGSGGSTYYADSVKGRFTISRDNAKNTVYLQMNSLKPEDTAVYYCNTARSLKNHFYKYDYWGHGTQVTVSS | high polyreactivity
QVQLVESGGGLVQAGGILRLSCAASGIIFVSYDRGWYRQAPGKERELVAAINRGGRTYYADSVKGRFTISRDNAKNTVYLQMNSLKPEDTAVYYCAAQFHFRPFSWTYDYWGQGTQVTVSS | high polyreactivity
QQQLHESGGGLVQAGGSLRLSCAASGSISQAWYMGWYRQAPGKERELVAAINVGAITYYADIVKGRFSISRDNAKNTVFLPMNSLTPEDTAVYYCAVDQYSEAYYDYWGQGTQATVSS | high polyreactivity
QVQLVESGGGLVQAGGSLRLSCAASGSTFQYNAMGWYRQAPGKERELVAAISLSGGSTYYADSVKGRFTISRDNAKNTVYLQMNSLKPEDTAVYYCATEYYVYDYYYWAWYGYEYWGQGTQVTVSS | high polyreactivity
QVNLVESGGGLVQAGGSLRLSCAASGRTFRFYVMGWYRQAPGKERELVAVIRYRGGSTYYADSVKGRFTISRDNAKNTVYLHMNSLKPEDTAVYYCNADFLLAGNEYDFWGQGTQVTVSS | high polyreactivity
QVQLVESGGGLVQAGGSLRLSCAASGSIFVLNAMGWYRQAPGKEWELVAVISNIGGRTYYADSVKGRFTISRDNAKNTVYLQLNSLKPEDTAVYSCAAPFTSTFDYWGQVTQVTVSS | low polyreactivity
